Paper PMC12192291, “Ancestral [Fe-S] biogenesis system SMS has a unique mechanism of cluster assembly and sulfur utilization” (PLOS Biology, 2025)
Values belong to the molecule of their own block, whether it stands above or below them.

B1: SmsB from Methanocaldococcus jannaschii (natural protein)
chain: MSIKEELMEIIEAIKYTSEKPEEIVHGKGPRIIVKESRIIDVQGDEGIILEGKEEDGKIKAKIIVKKGYKFKYPIHMCFGITEENISQIIDVEIILEEDSSISLMSHCSFPKGKGIKHIMNGIIKIGKNAKFSYNEFHYHGMDGDILVKPTVKVEIDEGGIYISNFTLTKGRIGTLDIEQEIIAKKDAIIDITTRTYAIKEDVVKVNEVVKLNGENAKCIIKSRGAAMDNSKISLKLKIEGNAPYSKGHIDCAEIVKGNAEVESIPIVVVRDDKARITHEAAIGSVDKKQLETLMAKGLDEDEATEIIVKGMIGDL
notes: SmsB, Methanocaldococcus jannaschii, subunit of the SMS system; Mainly a homodimer in solution; two copies in SmsC2B2; also called SmsB2; source: E. coli MG1655(DE3) (FBE682), purified (HisTrap, TEV protease, Ni-NTA, SEC); not shown: His6, N-terminal, cleaved

What was measured:
[1] = target: T1, SmsC (Methanocaldococcus jannaschii, UniProt Q60350); test: ligand-induced dimerization by size exclusion chromatography; blocks [Fe-S] reconstitution on SmsC2B2; assay type: binding; set-up: gene MJ0035; SmsC, His-tag removed
T1 sequence (Q60350 1-250): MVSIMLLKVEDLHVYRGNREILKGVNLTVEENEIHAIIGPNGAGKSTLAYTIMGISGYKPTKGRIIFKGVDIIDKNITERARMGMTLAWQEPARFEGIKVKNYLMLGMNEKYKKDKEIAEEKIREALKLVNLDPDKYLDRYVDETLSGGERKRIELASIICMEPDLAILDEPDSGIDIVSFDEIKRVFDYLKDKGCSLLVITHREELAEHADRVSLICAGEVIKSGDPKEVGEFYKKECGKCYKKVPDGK

[2] = target: T1, SmsC; test: enzyme-coupled ATPase assay (PK/LDH) on purified protein; assay type: biochemical; set-up: gene MJ0035; SmsC alone and SmsC2B2 complex
[3] = target: the molecule itself; test: SEC; calibrated Hiload 600 Superdex 200, 50 mM Tris-HCl pH 7.8, 100 mM NaCl, 1 mM DTT; no nucleotide; for the complex SmsB2 and SmsC were mixed in molar amounts corresponding to SmsC2B2 and incubated overnight
[4] = target: the molecule itself; test: cryo-EM structure; chemically reconstituted [4Fe-4S]-bound SmsC2B2, prepared under anoxic conditions and quickly vitrified (9H78, EMD-51913)
[5] = target: B1; test: SEC; calibrated Hiload 600 Superdex 200, 50 mM Tris-HCl pH 7.8, 100 mM NaCl, 1 mM DTT; no nucleotide; for the complex SmsB2 and SmsC were mixed in molar amounts corresponding to SmsC2B2 and incubated overnight; conditions: both partners purified

Molecule: Nc1ncnc2c1ncn2[C@@H]1O[C@H](CO[P@](=O)(O)O[P@](=O)(O)CP(=O)(O)O)[C@@H](O)[C@H]1O [AMP-PCP]
ligand-induced dimerization by size exclusion chromatography; blocks [Fe-S] reco [1]: Incubation of SmsC with excess of adenosine-5′-[(β,γ)-methyleno]triphosphate (AMP-PCP) led to SmsC dimer formation

Molecule: Nc1ncnc2c1ncn2[C@@H]1O[C@H](COP(=O)(O)OP(=O)(O)OP(=O)(O)O)[C@@H](O)[C@H]1O [ATP]
enzyme-coupled ATPase assay (PK/LDH) on purified protein [2]: 0.98 min⁻¹ (kcat)

Molecule: B1
stoichiometry N [3]: 2

binding result [5]: binds
B2: SmsC from Methanocaldococcus jannaschii (enzyme)
chain: MVSIMLLKVEDLHVYRGNREILKGVNLTVEENEIHAIIGPNGAGKSTLAYTIMGISGYKPTKGRIIFKGVDIIDKNITERARMGMTLAWQEPARFEGIKVKNYLMLGMNEKYKKDKEIAEEKIREALKLVNLDPDKYLDRYVDETLSGGERKRIELASIICMEPDLAILDEPDSGIDIVSFDEIKRVFDYLKDKGCSLLVITHREELAEHADRVSLICAGEVIKSGDPKEVGEFYKKECGKCYKKVPDGK
notes: SmsC, Methanocaldococcus jannaschii, ABC ATPase subunit of the SMS system; Monomer in solution without nucleotide; two copies in SmsC2B2; In the cryo-EM sample one of the two copies carries a [4Fe-4S] cluster; also called apo-SmsC; source: E. coli MG1655(DE3) (FBE682), purified (HisTrap, TEV protease, Ni-NTA, SEC); not shown: His6, N-terminal, cleaved
binding result [4]: binds
